Measured values published in the supplement of paper PMC10724198.
± gives the standard deviation of the averaged measurements.

Tested on: Saccharomyces cerevisiae
Assay: protein stability index of tFT-peptide fusion (C-terminal peptide) (PSI (0-1 scale)); higher = more stable (slower turnover)
Details: temperature: 30 C
Method: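 MPS profiling in S. cerevisiae of the yeast C-terminome library: the last 12 aa of each annotated ORF are fused to the C-terminus of a sfGFP-mCherry timer, after a GGGS linker. Cells are FACS-sorted into 8 mCherry/sfGFP bins and deep-sequenced. PSI runs from 0 (unstable) to 1 (stable); wild type and das1Δ backgrounds, two technical replicates each.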

[1] = genetic background: das1 deletion

## VKWKVLCDLGWT [YIL047C-A C-terminal 12 aa]
[1]
  protein stability index: 0.715 ± 0.023
Genetic background: wild type
  protein stability index: 0.708 ± 0.028

## LNDMVLELKENY [NNF1 C-terminal 12 aa]
[1]
  protein stability index: 0.698 ± 0.015
Genetic background: wild type
  protein stability index: 0.704 ± 0.0096

## RNSGEKLVAVLK [YNL134C C-terminal 12 aa]
[1]
  protein stability index: 0.691 ± 0.0088
Genetic background: wild type
  protein stability index: 0.6702 ± 0.0052

## RGSCDNWKKRQN [YBL044W C-terminal 12 aa]
[1]
  protein stability index: 0.726 ± 0.021
Genetic background: wild type
  protein stability index: 0.482 ± 0.0072

## SQTQAGSAYYTK [YOR268C C-terminal 12 aa]
[1]
  protein stability index: 0.699 ± 0.026
Genetic background: wild type
  protein stability index: 0.688 ± 0.025

## SSKKTIQEEIYI [DPB2 C-terminal 12 aa]
[1]
  protein stability index: 0.698 ± 0.015
Genetic background: wild type
  protein stability index: 0.741 ± 0.056

## VLDEEFRNNNAS [RAD26 C-terminal 12 aa]
[1]
  protein stability index: 0.716 ± 0.0098
Genetic background: wild type
  protein stability index: 0.69 ± 0.038

## QKLGIIGKNDLK [PSD1 C-terminal 12 aa]
[1]
  protein stability index: 0.685 ± 0.029
Genetic background: wild type
  protein stability index: 0.709 ± 0.016

## IKNRLNGLKYRL [YML020W C-terminal 12 aa]
[1]
  protein stability index: 0.751 ± 0.0083
Genetic background: wild type
  protein stability index: 0.6784 ± 0.0056

## CGGRPQYGVMFA [YDR249C C-terminal 12 aa]
[1]
  protein stability index: 0.6887 ± 0.0013
Genetic background: wild type
  protein stability index: 0.702 ± 0.023

## RELTDLFGYKLG [SLM4 C-terminal 12 aa]
[1]
  protein stability index: 0.708 ± 0.015
Genetic background: wild type
  protein stability index: 0.677 ± 0.02

## RTGSQSPPSSSQ [MED7 C-terminal 12 aa]
[1]
  protein stability index: 0.707 ± 0.022
Genetic background: wild type
  protein stability index: 0.673 ± 0.025

## DGKIKIWKISRN [GID7 C-terminal 12 aa]
[1]
  protein stability index: 0.701 ± 0.021
Genetic background: wild type
  protein stability index: 0.711 ± 0.086

## LTPADLQFLFNN [RAD16 C-terminal 12 aa]
[1]
  protein stability index: 0.72 ± 0.013
Genetic background: wild type
  protein stability index: 0.708 ± 0.017

## ACELLFENNIDM [PHO81 C-terminal 12 aa]
[1]
  protein stability index: 0.695 ± 0.015
Genetic background: wild type
  protein stability index: 0.7517 ± 0.0037

## KGGEDGSLVSSN [NHP10 C-terminal 12 aa]
[1]
  protein stability index: 0.688 ± 0.014
Genetic background: wild type
  protein stability index: 0.709 ± 0.011

## QARKSKSVSFYA [RPT5 C-terminal 12 aa]
[1]
  protein stability index: 0.693 ± 0.016
Genetic background: wild type
  protein stability index: 0.692 ± 0.027

## ETMVRIRVDGNE [DAD2 C-terminal 12 aa]
[1]
  protein stability index: 0.665 ± 0.027
Genetic background: wild type
  protein stability index: 0.676 ± 0.025

## TLLNAQKEALKK [APT1 C-terminal 12 aa]
[1]
  protein stability index: 0.6698 ± 0.0014
Genetic background: wild type
  protein stability index: 0.684 ± 0.03

## RYAHIGGLHQRT [PRR2 C-terminal 12 aa]
[1]
  protein stability index: 0.709 ± 0.01
Genetic background: wild type
  protein stability index: 0.686 ± 0.018

## VKSDSGSSCTIM [RHO3 C-terminal 12 aa]
[1]
  protein stability index: 0.721 ± 0.011
Genetic background: wild type
  protein stability index: 0.711 ± 0.023

## GKTDYLDTKLIF [EKI1 C-terminal 12 aa]
[1]
  protein stability index: 0.739 ± 0.02
Genetic background: wild type
  protein stability index: 0.726 ± 0.0084

## LRVYENFQKFIK [YMR262W C-terminal 12 aa]
[1]
  protein stability index: 0.72 ± 0.054
Genetic background: wild type
  protein stability index: 0.705 ± 0.04

## GATDTSCYKERG [MRPL27 C-terminal 12 aa]
[1]
  protein stability index: 0.695 ± 0.026
Genetic background: wild type
  protein stability index: 0.702 ± 0.085

## RLRKWLSTFVHQ [YNL034W C-terminal 12 aa]
[1]
  protein stability index: 0.756 ± 0.045
Genetic background: wild type
  protein stability index: 0.182 ± 0.017

## LNWVFSFYSCSE [YIL163C C-terminal 12 aa]
[1]
  protein stability index: 0.6796 ± 0.0049
Genetic background: wild type
  protein stability index: 0.688 ± 0.019

## AFSSNDLLTVHL [BRE1 C-terminal 12 aa]
[1]
  protein stability index: 0.698 ± 0.036
Genetic background: wild type
  protein stability index: 0.673 ± 0.011

## RRLEMEIANLQE [SPC34 C-terminal 12 aa]
[1]
  protein stability index: 0.726 ± 0.036
Genetic background: wild type
  protein stability index: 0.706 ± 0.028

## TAPLGKALHDLS [REE1 C-terminal 12 aa]
[1]
  protein stability index: 0.687 ± 0.059
Genetic background: wild type
  protein stability index: 0.72 ± 0.059

## DFFYFFQGPFVL [YOR072W-B C-terminal 12 aa]
[1]
  protein stability index: 0.721 ± 0.013
Genetic background: wild type
  protein stability index: 0.731 ± 0.044

## CSGIPSGSGASC [PGU1 C-terminal 12 aa]
[1]
  protein stability index: 0.691 ± 0.011
Genetic background: wild type
  protein stability index: 0.673 ± 0.076

## YSILWSDVYPDS [PDR1 C-terminal 12 aa]
[1]
  protein stability index: 0.7408 ± 0.0068
Genetic background: wild type
  protein stability index: 0.754 ± 0.013

## CENANYRGAEVP [YIL175W C-terminal 12 aa]
[1]
  protein stability index: 0.692 ± 0.017
Genetic background: wild type
  protein stability index: 0.689 ± 0.015

## IQFFSQCTSCTV [YLR286W-A C-terminal 12 aa]
[1]
  protein stability index: 0.507 ± 0.0085
Genetic background: wild type
  protein stability index: 0.5256 ± 0.004

## KYNNYFKIPPKY [BI3 C-terminal 12 aa]
[1]
  protein stability index: 0.688 ± 0.022
Genetic background: wild type
  protein stability index: 0.659 ± 0.018

## DEQKHNENENSR [RPO21 C-terminal 12 aa]
[1]
  protein stability index: 0.693 ± 0.022
Genetic background: wild type
  protein stability index: 0.708 ± 0.021

## ARAAEERMKKKY [VMS1 C-terminal 12 aa]
[1]
  protein stability index: 0.671 ± 0.023
Genetic background: wild type
  protein stability index: 0.663 ± 0.038

## VKTKFFPLSSSI [YDR199W C-terminal 12 aa]
[1]
  protein stability index: 0.738 ± 0.02
Genetic background: wild type
  protein stability index: 0.716 ± 0.026

## NKVEAFKSLYTF [NUP60 C-terminal 12 aa]
[1]
  protein stability index: 0.705 ± 0.028
Genetic background: wild type
  protein stability index: 0.591 ± 0.013

## QIAGRYVVDTSK [ADH2 C-terminal 12 aa]
[1]
  protein stability index: 0.6869 ± 0.0057
Genetic background: wild type
  protein stability index: 0.6522 ± 0.0027

## YKAVSVSANSPE [SOG2 C-terminal 12 aa]
[1]
  protein stability index: 0.689 ± 0.016
Genetic background: wild type
  protein stability index: 0.673 ± 0.032

## YANAPIEEKPLI [PUN1 C-terminal 12 aa]
[1]
  protein stability index: 0.702 ± 0.018
Genetic background: wild type
  protein stability index: 0.683 ± 0.017

## NNNMESFPEMSP [GLE1 C-terminal 12 aa]
[1]
  protein stability index: 0.726 ± 0.013
Genetic background: wild type
  protein stability index: 0.72 ± 0.017

## QGMLQSFLDREL [YOL057W C-terminal 12 aa]
[1]
  protein stability index: 0.721 ± 0.023
Genetic background: wild type
  protein stability index: 0.666 ± 0.042

## YAGHRFHDGNKL [ERR1 C-terminal 12 aa]
[1]
  protein stability index: 0.726 ± 0.009
Genetic background: wild type
  protein stability index: 0.737 ± 0.043

## HQNENMFLTELY [YDL247W-A C-terminal 12 aa]
[1]
  protein stability index: 0.7214 ± 0.0031
Genetic background: wild type
  protein stability index: 0.707 ± 0.067

## VSLLLNSLALFF [YGL204C C-terminal 12 aa]
[1]
  protein stability index: 0.688 ± 0.021
Genetic background: wild type
  protein stability index: 0.6623 ± 0.0058

## LSTFFLFHNPCN [YGL239C C-terminal 12 aa]
[1]
  protein stability index: 0.762 ± 0.022
Genetic background: wild type
  protein stability index: 0.706 ± 0.079

## EIGGLLLQSFYN [YPL119C-A C-terminal 12 aa]
[1]
  protein stability index: 0.687 ± 0.039
Genetic background: wild type
  protein stability index: 0.7378 ± 0.0018

## SFTKSRIHLEFT [SPC105 C-terminal 12 aa]
[1]
  protein stability index: 0.706 ± 0.024
Genetic background: wild type
  protein stability index: 0.69832 ± 2.3e-05

## LRKAAANNCIQF [SUA5 C-terminal 12 aa]
[1]
  protein stability index: 0.7215 ± 0.0026
Genetic background: wild type
  protein stability index: 0.7134 ± 0.0016

## DWVSHGGDKLDL [RDL1 C-terminal 12 aa]
[1]
  protein stability index: 0.703 ± 0.042
Genetic background: wild type
  protein stability index: 0.704 ± 0.012

## CFWRMICSEPKL [YAR064W C-terminal 12 aa]
[1]
  protein stability index: 0.736 ± 0.0093
Genetic background: wild type
  protein stability index: 0.623 ± 0.052

## RLEQGSNGFMFA [NAM8 C-terminal 12 aa]
[1]
  protein stability index: 0.702 ± 0.026
Genetic background: wild type
  protein stability index: 0.699 ± 0.011

## TNEWCLFTPDSP [MLH2 C-terminal 12 aa]
[1]
  protein stability index: 0.744 ± 0.018
Genetic background: wild type
  protein stability index: 0.7355 ± 0.005

## EGSAFKKQKHYR [NOP9 C-terminal 12 aa]
[1]
  protein stability index: 0.703 ± 0.0097
Genetic background: wild type
  protein stability index: 0.701 ± 0.012

## LLGAITALFGLI [PLB2 C-terminal 12 aa]
[1]
  protein stability index: 0.686 ± 0.034
Genetic background: wild type
  protein stability index: 0.658 ± 0.029

## SSESEAVKKAKS [CIC1 C-terminal 12 aa]
[1]
  protein stability index: 0.668 ± 0.031
Genetic background: wild type
  protein stability index: 0.685 ± 0.062

## AFKGHDNSDDKA [RIB2 C-terminal 12 aa]
[1]
  protein stability index: 0.706 ± 0.017
Genetic background: wild type
  protein stability index: 0.666 ± 0.025

## ETAENIAKYIRN [NPA3 C-terminal 12 aa]
[1]
  protein stability index: 0.682 ± 0.024
Genetic background: wild type
  protein stability index: 0.661 ± 0.035

## IPTSFFFFNSIV [YKL123W C-terminal 12 aa]
[1]
  protein stability index: 0.734 ± 0.034
Genetic background: wild type
  protein stability index: 0.305 ± 0.0033
